Reference: patent US20190077860A1 (EISAI R AND D MANAGEMENT, published 2019)

Legend:
[1] = biological target: T1, mouse EphA4 extracellular region-SEAP-His protein (mouse); experiment: competition ELISA, competitor biotinylated mouse Ephrin B2-Fc
Procedure: Antibody A-Fab and antibody A-F(ab′)₂ obtained in Example 5 were evaluated for their inhibitory activity against the binding between EphA4 and its ligand according to the following steps. Each well of a 96-well plate (Nunc) was coated with an anti-alkaline phosphatase antibody (Thermo Fisher Scientific). After incubation overnight at 4° C., each well was blocked with 1% BlockAce (DS Pharma Biomedical) at room temperature for 1 hour. After washing with 0.05% Tween 20/PBS (Thermo Fisher Scientific) three times, the mouse EphA4 extracellular region-SEAP-His protein obtained by the method of Example 1 was added (final concentration: 10 nM) to each well and incubated at room temperature for 1 hour. After washing three times, a ligand and serially diluted antibody A (0, 0.003, 0.01, 0.03, 0.1, 0.3, 1, 3, 10, 30, 100, 300, 1000, and 3000 nM), antibody A-Fab (0, 0.003, 0.01, 0.03, 0.1, 0.3, 1, 3, 10, 30, 100, 300, 1000, and 3000 nM), antibody A-F(ab′)₂ (0, 0.003, 0.01, 0.03, 0.1, 0.3, 1, 3, 10, 30, 100, 300, 1000, and 3000 nM), or the EphA4 inhibitor KYL peptide ([…], 0, 0.0003, 0.001, 0.003, 0.01, 0.03, 0.1, 0.3, 1, 3, 10, 30, 100, 300, 1000, and 3000 μM, its synthesis was outsourced to Toray Research Center) were added to each well. The ligand used was biotinylated mouse Ephrin B2-Fc chimera (R&D Systems, final concentration: 2.5 nM). After incubation at room temperature for 1 hour and subsequent washing three times, horseradish peroxidase-labeled streptavidin (GE Healthcare) was added thereto and incubated at room temperature for 1 hour. After washing three times, a TMBZ (3,3′,5,5′-tetramethylbenzidine, Sigma-Aldrich) solution was added to each well and incubated at room temperature for 2 minutes. An equal amount of a reaction stopping solution (1N H₂SO₄, Wako Pure Chemical Industries) was added to each well. The absorbance at 450 nm was read using a microplate reader (Molecular Devices or PerkinElmer).
Antibody A and antibody A-F(ab′)₂ had 1000 or more times the activity of the KYL peptide, and antibody A-Fab also had 10 or more times the activity of KYL peptide.

[2] = biological target: T1, mouse EphA4 extracellular …; experiment: SPR (Biacore T200), EphA4-SEAP-His captured by anti-His antibody; F(ab')2 (bivalent), not Fab
Procedure: (§1) Next, the binding affinity of antibody A-Fab and antibody A-F(ab′)₂ for mouse and human EphA4 was determined by surface plasmon resonance (SPR) using Biacore T200 (GE Healthcare). Antibody A obtained in Example 1 was used as a control for the comparison of each fragment. First, an anti-His tag antibody was immobilized on sensor chip CM5. The immobilization of the anti-His tag antibody on sensor chip CM5 was performed by the amine coupling method using N-hydroxysuccinimide (NHS) and N-ethyl-N′-(3-dimethylaminopropyl)carbodiimide hydrochloride (EDC). Ethanolamine was used in blocking (the sensor chip and the reagents for immobilization were all manufactured by GE Healthcare). The antibody was diluted with a buffer solution for immobilization (10 mM sodium acetate, pH 4.5) into 3 μg/mL and immobilized on the sensor chip according to the protocol attached to Biacore T200.
(§2) Mouse or human EphA4 extracellular region-SEAP-His protein was diluted with a running buffer solution HBS-EP (GE Healthcare, BR-1001-88), injected onto a flow cell for 120 seconds, and captured (amount of the protein captured: approximately 10 to 20 RU). Subsequently, antibody A (50, 16.7, 5.6, 1.9, 0.6, and 0 nM), antibody A-Fab (500, 166.7, 55.6, 18.5, 6.2, and 0 nM), or antibody A-F(ab′)₂ (50, 16.7, 5.6, 1.9, 0.6, and 0 nM) serially diluted using HBS-EP was added to the sensor chip for 120 seconds. […]

[3] = biological target: T2, human EphA4 extracellular region-SEAP-His protein (human, UniProt P54764 20-547); experiment: as above
T2 construct: also called hEphA4-SEAP-His
T2 sequence (P54764 20-547): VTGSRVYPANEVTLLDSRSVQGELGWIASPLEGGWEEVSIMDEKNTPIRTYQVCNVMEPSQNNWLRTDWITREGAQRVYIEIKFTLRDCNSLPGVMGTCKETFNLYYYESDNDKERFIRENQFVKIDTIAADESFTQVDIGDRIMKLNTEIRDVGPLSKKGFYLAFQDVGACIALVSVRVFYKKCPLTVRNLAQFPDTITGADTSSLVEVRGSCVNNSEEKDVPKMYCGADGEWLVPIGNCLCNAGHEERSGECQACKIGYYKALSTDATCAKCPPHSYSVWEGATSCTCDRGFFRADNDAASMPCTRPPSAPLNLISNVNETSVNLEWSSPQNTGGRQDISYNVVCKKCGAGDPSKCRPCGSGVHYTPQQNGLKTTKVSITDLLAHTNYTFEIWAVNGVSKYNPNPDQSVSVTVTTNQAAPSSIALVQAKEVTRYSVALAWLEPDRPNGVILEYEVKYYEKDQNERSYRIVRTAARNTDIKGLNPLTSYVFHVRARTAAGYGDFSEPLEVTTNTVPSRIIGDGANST
Procedure: as §1, §2

[4] = biological target: T1, mouse EphA4 extracellular …; experiment: SPR (Biacore T200), mouse EphA4 extracellular region-SEAP-His captured on an anti-His antibody CM5 chip, F(ab')2 as analyte at 0.6-50 nM, 1:1 fit
Procedure: as §1, §2

[5] = biological target: T2, human EphA4 extracellular …; experiment: SPR (Biacore T200), human EphA4 extracellular region-SEAP-His captured on an anti-His antibody CM5 chip, F(ab')2 as analyte at 0.6-50 nM, 1:1 fit
Procedure: as §1, §2

T1 sequence (chain, as listed by the source limits assumed): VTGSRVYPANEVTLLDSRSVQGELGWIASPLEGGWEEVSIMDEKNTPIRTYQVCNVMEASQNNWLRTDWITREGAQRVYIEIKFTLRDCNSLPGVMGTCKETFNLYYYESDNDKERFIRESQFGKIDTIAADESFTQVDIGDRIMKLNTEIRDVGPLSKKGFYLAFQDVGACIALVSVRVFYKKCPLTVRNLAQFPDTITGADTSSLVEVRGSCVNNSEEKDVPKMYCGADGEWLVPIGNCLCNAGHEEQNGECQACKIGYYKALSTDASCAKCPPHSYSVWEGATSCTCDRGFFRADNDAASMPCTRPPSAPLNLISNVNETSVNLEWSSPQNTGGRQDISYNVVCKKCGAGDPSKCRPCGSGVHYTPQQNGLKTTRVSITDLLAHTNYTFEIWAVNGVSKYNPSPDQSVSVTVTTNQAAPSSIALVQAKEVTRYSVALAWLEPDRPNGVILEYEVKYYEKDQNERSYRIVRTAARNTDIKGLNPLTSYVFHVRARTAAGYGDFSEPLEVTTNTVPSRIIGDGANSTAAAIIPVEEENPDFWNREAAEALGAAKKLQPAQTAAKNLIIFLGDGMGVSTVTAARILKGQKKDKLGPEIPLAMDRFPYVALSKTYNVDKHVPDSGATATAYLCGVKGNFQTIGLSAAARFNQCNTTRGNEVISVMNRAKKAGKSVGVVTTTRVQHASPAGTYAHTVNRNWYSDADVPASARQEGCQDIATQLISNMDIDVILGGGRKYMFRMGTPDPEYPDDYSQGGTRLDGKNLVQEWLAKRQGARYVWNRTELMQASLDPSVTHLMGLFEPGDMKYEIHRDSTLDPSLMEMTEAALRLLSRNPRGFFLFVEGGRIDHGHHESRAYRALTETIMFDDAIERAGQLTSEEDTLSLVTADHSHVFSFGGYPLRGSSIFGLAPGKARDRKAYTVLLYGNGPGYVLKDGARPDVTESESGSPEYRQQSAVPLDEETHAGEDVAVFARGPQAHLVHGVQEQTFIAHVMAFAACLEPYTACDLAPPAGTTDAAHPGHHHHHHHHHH

IC50 [1]: 2.9 nM
fold activity against KYL peptide [1]: ≥ 1000 fold
Kd [2]: 0.0229 nM
Kd [3]: 0.053 nM
koff [4]: 0.000205 s⁻¹
kon [4]: 8.98e+06 M⁻¹ s⁻¹
koff [5]: 0.0333 s⁻¹
kon [5]: 629000 M⁻¹ s⁻¹
B1: antibody A-F(ab')2 (other, not shown: a dimerising Fc or GST)
heavy: QIQLVQSGPELKKPGETVKISCKASGYTFTDYSMHWVKQAPGKGLKWMGWINTETGEPTYADDFKGRFAFSLETSASTAYLQINNLKNEDTATYFCARIPLYYYGSRYWYFDVWGAGTTVTVSS
light: DIQMTQSPASLSVSVGETVTITCRASENIYRNLAWYQQKQGKSPQLLVYAATNLADGVPSRFSGSGSGTQYSLKINSLQSEDFGSYYCQHFWGTPWTFGGGTKLEIKRADAAPTVSIFPPSSEQLTSGGASVVCFLNNFYPKDINVKWKIDGSERQNGVLNSWTDQDSKDSTYSMSSTLTLTKDEYERHNSYTCEATHKTSTSPIVKSFNRNEC
notes: made by pepsin digestion of antibody A; also called F(ab')2 fragment of antibody A
